Here are results for ten molecules from US20220073604A1 (ARGENX BVBA, published 2022).

Test [1] has as its target T1, cynomolgus monkey IL-6 (cynomolgus monkey, UniProt P79341 28-212, limits assumed).
T1 construct: also called HIS-cyIL-6
Description: SPR; purified Fab. In general terms: Surface plasmon resonance follows binding to a sensor surface in real time, without labels.

Test [2] has as its target T2, eukaryotically produced human IL-6 (human, UniProt P05231 30-212).
T2 construct: also called eukIL-6; Euk IL-6
Kind of test: SPR; purified Fab.

For test [3], the target named is T3, bacterially produced human IL-6 (human, UniProt P05231 30-212).
T3 construct: also called bactIL-6; prokaryotic IL-6
Description: SPR; purified Fab.

For test [4], the target named is T1, cynomolgus monkey IL-6. Description: SPR; purified Fab, 68 nM.
The target in test [5] is T2, eukaryotically produced human IL-6. Description: SPR; purified Fab, 68 nM.
The target in test [6] is T3, bacterially produced human IL-6. Description: SPR; purified Fab, 68 nM.
Test [7] deals with T2, eukaryotically produced human IL-6. Kind of test: SPR; purified Fab; IL-6 coated on CM5 chip.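 Note: dissociation rate taken from the wash phase, association rate fitted over the injection phase with analyte concentration and dissociation rate as inputs.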
Description: (§1) From the washing phase the off-rate (kd) was determined, while from the injection phase the on-rate (ka) was calculated using the concentration and off-rate as parameters.
Test [8] has as its target T3, bacterially produced human IL-6. Kind of test: SPR; purified Fab; IL-6 coated on CM5 chip.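 Note: dissociation rate taken from the wash phase, association rate fitted over the injection phase with analyte concentration and dissociation rate as inputs.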
Description: as §1
Test [9] concerns the target T4, bacterially produced human IL-6 (human, UniProt P05231 30-212).
T4 construct: also called bact-hIL-6; BACT IL-6
Description: off-rate of Fab 111A7 variant on bact-hIL-6 (binding kinetics, SPR presumed; n = 3).

For test [10], the target named is T5, eukaryotically produced human IL-6 (human, UniProt P05231 30-212).
T5 construct: also called euk-hIL-6; EUK IL-6
Kind of test: off-rate of Fab 111A7 variant on euk-hIL-6 (binding kinetics, SPR presumed; n = 3).

The target in test [11] is T6, bacterially produced cynomolgus monkey IL-6 (cynomolgus monkey, UniProt P79341 28-212, limits assumed).
T6 construct: also called bact-cy IL-6; HIS-cyIL-6
Description: off-rate of Fab 111A7 variant on bact-cy IL-6 (binding kinetics, SPR presumed; n = 3).

Test [12] concerns the target IL-6 (bact-hIL-6, euk-hIL-6 and bact-cy IL-6; 'average binding' of Table 21). Kind of test: average binding level in the off-rate screen (unit not given; n = 3).
Test [13] has as its target T6, bacterially produced cynomolgus monkey …. Description: off-rate of Fab 111A7 variant on bact-cy IL-6 (binding kinetics, SPR presumed; n = 2).
Test [14] addresses IL-6 (bact-hIL-6, euk-hIL-6 and bact-cy IL-6; 'average binding' of Table 21). Description: average binding level in the off-rate screen (unit not given; n = 2).
The target is the same in test [15]. Description: average binding level in the off-rate screen (unit not given; n = 5).
In test [16] the target is T6, bacterially produced cynomolgus monkey …. Description: off-rate of Fab 111A7 variant on bact-cy IL-6 (binding kinetics, SPR presumed; n = 5).
Test [17] addresses T7, eukaryotically produced human IL-6 (human, UniProt P05231 30-212).
T7 construct: Immobilised on the Biacore chip; also called Euk IL-6; EUK IL-6 (3-1)
Description: SPR (Biacore), periplasmic Fab.
Description: (§2) The binding kinetics of periplasmic fractions of bacteria containing the mutant Fabs were tested using surface Plasmon resonance (Biacore) and the off-rate for each mutant was determined.

Test [18] addresses T8, bacterially produced human IL-6 (human, UniProt P05231 30-212).
T8 construct: Immobilised on the Biacore chip; also called BACT IL-6 (2-1); bactIL-6
Kind of test: SPR (Biacore), periplasmic Fab.
Description: as §2

Test [19] has as its target T4, bacterially produced human IL-6. Kind of test: off-rate of Fab 111A7 variant on bact-hIL-6 (binding kinetics, SPR presumed; n = 5).
For test [20], the target named is T5, eukaryotically produced human IL-6. Description: off-rate of Fab 111A7 variant on euk-hIL-6 (binding kinetics, SPR presumed; n = 5).
Test [21] deals with T9, human IL-6 (human, UniProt P05231 30-212).
T9 construct: Used where the text says only IL-6 or human IL-6 (crystals: rh IL-6 from Immunotools; cell assays) and for values averaged over the bacterial and eukaryotic IL-6 channels; also called interleukin-6; rh IL-6
Kind of test: comparison of affinities after VL shuffling.

The target in test [22] is eukaryotically produced human IL-6 (human) (UniProt P05231). Kind of test: SPR (Biacore), purified Fab.
Test [23] addresses bacterially produced human IL-6 (human) (UniProt P05231). Kind of test: SPR (Biacore), purified Fab.
Test [24] shares this target. Description: SPR; purified Fab; ratio bact to euk IL-6.
For test [25], the target named is T9, human IL-6. Kind of test: SPR; purified Fab; average of the IL-6 channels.
For test [26], the target named is eukaryotically produced human IL-6 (human) (UniProt P05231). Kind of test: SPR; purified Fab.
Test [27] addresses bacterially produced human IL-6 (human) (UniProt P05231). Kind of test: SPR; purified Fab.
The target in test [28] is IL-6 surfaces of Table 8 (Bact, euk, cyno), average. Description: SPR (Biacore), off-rate screen.
The target in test [29] is T3, bacterially produced human IL-6. Description: SPR; purified Fab; ratio bact to euk IL-6.
Test [30] has as its target T9, human IL-6. Description: SPR; periplasmic fraction; average of the IL-6 channels. On the set-up: unit not given here.
Test [31] addresses T3, bacterially produced human IL-6. Kind of test: SPR; purified Fab over biotinylated IL-6 on streptavidin chip.
Description: as §1
In test [32] the target is T2, eukaryotically produced human IL-6. Description: SPR; purified Fab. This is another data set of the same source.
For test [33], the target named is T3, bacterially produced human IL-6. Kind of test: SPR; purified Fab. The source holds these as a separate data set.
Test [34] has the same target. Description: SPR; periplasmic fraction; ratio bact to euk IL-6.
Description: as §1
The target of test [35] is T2, eukaryotically produced human IL-6. Kind of test: SPR; periplasmic fraction.
Description: as §1
The target in test [36] is T3, bacterially produced human IL-6. Kind of test: SPR; periplasmic fraction.
Description: as §1

Numbering of substitutions follows the chain as printed. Numbers in names are those of the source. Where “and” joins values, the source holds several entries; their conditions need not be identical. Identical values can stand only once.

B1: Fab 17F10 (Fab, V domains shown)
VH: EVQLQESGPGLVKPSQTLSLTCTVSGGSIATSYYAWSWIRQPPGKGLEWMGVIDYDGDTYYKPSLKSRTSISRDTSKNQFSLQLSSVTPEDTAVYYCARAGLGDSYYLGTYYAMDYWGKGTLVTVSS
VL: QAGLTQPPSVSGSPGKTVTISCAGTTSDVGTGNFVSWYQQLPGMAPKLLIYDVNKRASGIADRFSGSKSGNTASLTISGLQSEDEADYYCASYRSLNNVVFGGGTHLTVLG
notes: Fab; also called 17F10 pur Fab 68 nM
One may read the Kd as the equilibrium constant for the complex coming apart. One may read the koff as the first-order rate constant of dissociation. Consider B1, for which the Kd in [1] worked out at 0.62 nM; in [2], 6 nM; in test [3] it was 43 nM; in test [4], 14 nM; in test [5], 14 nM; in test [6], 19 nM. Moreover, the figures for the Kd in [7] and in test [8] were 6 nM and 43 nM, respectively. The koff in test [1] amounted to 0.0007 s⁻¹; in test [2], 0.00072 s⁻¹; in test [3], 0.0012 s⁻¹; in test [4], 0.00078 s⁻¹; in test [5], 0.00077 s⁻¹; in [6] it was 0.00088 s⁻¹. Further, the figures for the koff in test [7] and in [8] were 0.00072 s⁻¹ and 0.0012 s⁻¹, respectively.

B2: Fab 111A7M_A (CMC optimized variant of Fab 111A7, CDR3 methionine to alanine) (Fab, V domains shown)
VH: EVQLLESGGGLVQPGGSLRLSCAASGFTFSSYAMSWVRQAPGKGPEWVSRISAGGGSTYYGDSVKGRFTISRDNSKNTLYLQMNSLRAEDTAVYYCANRAGWGAGDYWGQGTLVTVSS
VL: QTVVTQEPSFSVSPGGTVTLTCGLSSGSVTASNYPGWYQQTPGQAPRALIYSTNDRHSGVPDRFSGSISGNKAALTITGAQAEDEADYYCALDIGDITEFGGGTQLTVL
notes: Fab; The VL is that of 111A7; also called M98X: A
Take B2: the koff turned out to be 8.5e-05 s⁻¹ in test [9], 4.77e-05 s⁻¹ in [10] and 0.000131 s⁻¹ in [11]. Besides, the average binding in test [12] stood at 102.

B3: Fab 111A7 with the CDR3 methionine changed to T (Fab, V domains shown)
VH: B2 VH with A104T
VL: B2 VL
In [13], B3 returned an off-rate (koff) of 0.000144 s⁻¹. In addition, the average binding in test [14] came out at 130.

B4: Fab 111A7 with the CDR3 methionine changed to V (Fab, V domains shown)
VH: B2 VH with A104V
VL: B2 VL
Turning to B4, the koff in test [13] was determined as 0.000242 s⁻¹. The average binding in test [14] was found to be 163.

B5: Fab 111A7 with the CDR3 methionine changed to P (Fab, V domains shown)
VH: B2 VH with A104P
VL: B2 VL
B5: the average binding in test [15] worked out at 66. In addition, in test [16], the koff was 0.000899 s⁻¹.

B6: 111A7 Fab (W98, M100) (Fab, V domains shown)
VH: B2 VH with A104M
VL: B2 VL
notes: also called WGM
Regarding B6, the koff was determined as 4.67e-05 s⁻¹ in test [17] and 5e-05 s⁻¹ in test [18].

B7: Fab 111A7M_S (CMC optimized variant of Fab 111A7, CDR3 methionine to serine) (Fab, V domains shown)
VH: B2 VH with A104S
VL: B2 VL
notes: Fab; The VL is that of 111A7; also called M98X: S
The molecule B7 yielded an average binding in [15] of 118. For the same molecule, the koff in test [19] was 9.81e-05 s⁻¹; in [16], 0.000146 s⁻¹; in test [20], 5.46e-05 s⁻¹.

B8: Fab 68F2 (Fab, V domains shown)
VH: EVQLQESGPGLVKPSQTLSLTCTVSGGSITTRYYAWSWIRQPPGKGLEWMGVIDYDGDTYYSPSLKSRTSISWDTSKNQFSLQLSSVTPEDTAVYYCARDPDVVTGFHYDYWGQGTQVTVSS
VL: QSALTQPPLVSGTPGQTVTISCAGANNDIGTYAYVSWYQQLPGTAPKLLIYKVTTRASGIPSRFSGSKSGNTASLTISGLQSEDEADYYCASYRNFNNAVFGRGTHLTVLG
notes: VL-shuffled Fab of 20A4; for the crystal the Fab was made from 68F2 mAb with papain; also called 68F2 Fab
Turning to B8, the koff amounted to 3.3e-05 s⁻¹ in test [2] and 8e-05 s⁻¹ in test [3]. In addition, the “fold affinity against parental 20A4” value in [21] came to 10 fold.

B9: BE8-Fab (Fab, from another filing, V domains shown)
VH: QVTLKESGPGILKPSQTLSLTCSFSGFSLSTSGMGVGWIRQPSGKGLEWLAHIWWDDDKYYNPSLKSQLTISKDTSRNQVFLKITSVDTADTATYYCARSYDDYLYYALDYWGQGTSVTVSS
VL: DIVMTQSPATLSVTPGDRVSLSCRASQSISDYLHWYQQKSHESPRLLIKSVSQSISGIPSRFSGSGSGSDFTLSINSVEPEDVGVYYCQNGHSFPLTFGAGTKLELK
As usually defined, the kon is the rate constant with which the complex forms. In the case of B9, the Kd was 0.22 nM in test [22] and 0.28 nM in test [23]. Besides, the koff was determined as 7.7e-05 s⁻¹ in test [22], 7.7e-05 s⁻¹ in [23], 8.59e-05 s⁻¹ in test [26] and 9.41e-05 s⁻¹ in test [27]. Also, the kon in test [22] was 360000 M⁻¹ s⁻¹; in test [23], 280000 M⁻¹ s⁻¹. The ratio bact/euk in test [24] stood at 1.05. Moreover, the average binding in test [25] was 207. Besides, in test [28], the Average binding (RU) was 338 RU and 340 RU and 347 RU.

B10: Fab 24D10 (Fab, V domains shown)
VH: QLQVVESGGGLVQPGGSLRLSCAASGFTFSSYAMSWVRQAPGKGPEWVSRISSGGGSTSYADSVKGRFTISRDNAKNTLYLQMNSLKPEDTAVYYCANRAGWGMGDYWGQGTQVTVSS
VL: QTVVTQEPSLSVSPGGTVTLTCGLSSGSVTASNYPGWFQQTPGQAPRALIYSTNDRHSGVPSRFSGSISGNKAALTITGAQPEDEADYYCALDIGDITEFGGGTHLTVLG
notes: Fab; also called pur24d10; 28f12(24D10)
B10: the ratio bact/euk in [29] was determined as 1.14; in [34], 1.09. The average binding in test [30] amounted to 167. Besides, the Ka in test [31] is 3.7e+09 M⁻¹. For the same molecule, the results for the Kd in test [31], in [7] and in [8] were 0.27 nM, 0.85 nM and 1.2 nM, respectively. Besides, the dissociation rate constant (koff) in test [31] came out at 1.69e-05 s⁻¹; in test [32], 0.000125 s⁻¹; in test [33] it was 0.000143 s⁻¹; in [35], 0.000144 s⁻¹; in [36] it was 0.000183 s⁻¹; in test [7], 0.00017 s⁻¹. This molecule gave an off-rate (koff) in test [8] of 0.00019 s⁻¹. In test [31], this molecule showed a kon of 62700 M⁻¹ s⁻¹.
